PMC10080691, “Enzyme-Responsive Double-Locked Photodynamic Molecular Beacon for Targeted Photodynamic Anticancer Therapy” (Journal of the American Chemical Society, 2023)

How the values were obtained:
Assay in all cases: Dark and photocytotoxicity (MTT)
Format in all cases: cell-based, human
[1] = tested on: A549 cells; conditions: without light irradiation, up to 4 μM, all conditions (with or without inhibitors)
Protocol: (§1) The dark- and photocytotoxicity of 1 was also investigated against all four cell lines under the different conditions as described, using 14 as a negative control. […] Without light irradiation, both 1 and 14 were noncytotoxic up to 4 μM for all conditions. Upon light irradiation (λ > 610 nm, 23 mW cm^–2, 28 J cm^–2), both conjugates however could induce a different extent of cytotoxicity. […] The results could be attributed to the intrinsic difference in the MMP-2 levels in these cells. […] The photocytotoxicity was further reduced under the dual inhibition condition, for which the IC50 values (>4 μM) also could not be determined. […] The overall results generally followed the trend of intracellular ROS generation as reported above. […]
(§2) Approximately 2 × 10^4 cells per well (100 µL) in the corresponding medium were inoculated in 96-well plates and incubated overnight at 37 °C in a humidified 5% CO 2 atmosphere. A stock solution of 1 or 14 (1 mM) was prepared as described above, which was diluted with a serum-free medium to various concentrations. The cells, after being rinsed with PBS twice, were treated with or without SB -3CT (10 μM) and/or CA -074 Me (25 μM) in the medi um (100 μL) for 2 h. The cells were further incuba ted with 100 μL of different concentrations of 1 or 14 for 1 h at 37 °C under 5% CO2. After being rinsed with PBS twice, the cells were incubated in the culture medium (100 μL) for 6 h. The cells were then rinsed with PBS and re -fed with 100 μL of a serum-containing medium before being irradiated (λ > 610 nm, 23 mW cm –2, 28 J cm– 2) at ambient temperature. Cell viability was determined by means of a colorimetric MTT assay.R7 After irradiation, the cells were incubated at 37 °C under 5% CO 2 overnight. After incubation, the medium was removed and the cell s were rinsed with PBS twice. A MTT (S igma) solution in PBS (3 mg mL -1, 50 μL) was added to each well followed by incubation for 4 h under the same environment. DMSO (100 μL) was then added to each well. Solutions in all the wells were mixed until homogenous. The absorbance at 490 nm of each w ell on the plate was […]
(§3) taken by a microplate reader (Tecan Spark 10M) at ambient temperature. The average […]
(§4) of the other wells. The cell viability was then determined by the equation: […]
(§5) where Ai is the absorbance of the ith datum (i = 1, 2, …, n), Acontrol is the average absorbance of the control wells in which the compound was absent, and n (= 4) is the number of data points. […]

[2] = tested on: HEK-293 cells; conditions: for dark cytotoxicity: without light irradiation, up to 4 μM, all conditions
Protocol: as §1, §2, §3, §4, §5

[3] = tested on: U-87 MG cells; conditions: without light irradiation, up to 4 μM, all conditions
Protocol: as §1, §2, §3, §4, §5

[4] = tested on: HeLa cells; conditions: without light irradiation, up to 4 μM, all conditions
Protocol: as §1, §2, §3, §4, §5

CCN(CC)c1ccc2nc3ccc(/N=N/c4ccc(N(C)CCCNC(=O)OC[C@@H]5[C@@H]6CCc7nnn(CC(=O)NCCCC[C@@H]8NC(=O)CNC(=O)[C@H](CCCCN)NC(=O)[C@H](CCCNC(=N)N)NC(=O)[C@H](C(C)C)NC(=O)CNC(=O)[C@H](CC(C)C)NC(=O)[C@@H]9CCCN9C(=O)[C@H](CCCCN)NC(=O)[C@@H](N)CSCc9cc(COc%10ccc(C%11=C%12C(C)=C(I)C(/C=C/c%13ccc(OCCOCCOCCOC)cc%13)=[N+]%12[B-](F)(F)n%12c(/C=C/c%13ccc(OCCOCCOCCOC)cc%13)c(I)c(C)c%12%11)cc%10)cc(c9)CSC[C@@H](C(N)=O)NC(=O)[C@H](CCCCN)NC(=O)[C@H](CCCCN)NC(=O)CNC(=O)[C@H](CC(C)C)NC(=O)[C@H](Cc9ccccc9)NC(=O)CNC(=O)[C@H](CCCCN)NC(=O)CNC8=O)c7CC[C@@H]65)cc4)cc3[n+](-c3ccccc3)c2c1 [compound 1]
dark cytotoxicity [1]: noncytotoxic | IC50 ([2]; no inhibitor, 1 h + 6 h, light λ > 610 nm, 23 mW cm-2, 28 J cm-2): > 4 µM | dark cytotoxicity [2]: noncytotoxic | dark cytotoxicity [3]: noncytotoxic | dark cytotoxicity [4]: noncytotoxic

CCN(CC)c1ccc2nc3ccc(/N=N/c4ccc(N(C)CCCNC(=O)OC[C@@H]5[C@@H]6CCc7nnn(CC(=O)NCCCC[C@@H]8NC(=O)CNC(=O)[C@H](CCCCN)NC(=O)CNC(=O)CNC(=O)CNC(=O)CNC(=O)CNC(=O)[C@H](CCCCN)NC(=O)[C@@H](N)CSCc9cc(COc%10ccc(C%11=C%12C(C)=C(I)C(/C=C/c%13ccc(OCCOCCOCCOC)cc%13)=[N+]%12[B-](F)(F)n%12c(/C=C/c%13ccc(OCCOCCOCCOC)cc%13)c(I)c(C)c%12%11)cc%10)cc(c9)CSC[C@@H](C(N)=O)NC(=O)[C@H](CCCCN)NC(=O)[C@H](CCCCN)NC(=O)CNC(=O)CNC(=O)CNC(=O)CNC(=O)[C@H](CCCCN)NC(=O)CNC8=O)c7CC[C@@H]65)cc4)cc3[n+](-c3ccccc3)c2c1 [compound 14]
dark cytotoxicity [1]: noncytotoxic | dark cytotoxicity [2]: noncytotoxic | dark cytotoxicity [3]: noncytotoxic | dark cytotoxicity [4]: noncytotoxic
